Test results reported in publication PMC11911456, “Investigating synthetic lethality and PARP inhibitor resistance in pancreatic cancer through enantiomer differential activity” (Cell Death Discovery, 2025).

Target: T1, human RAD51 protein (human, UniProt Q06609-1 1-339)
T1 construct: RAD51 recombinase, human, NP_002866, bought from Creative Biomart; This is the RAD51 of the ELISA; source: bought: Creative Biomart
T1 sequence (looked up): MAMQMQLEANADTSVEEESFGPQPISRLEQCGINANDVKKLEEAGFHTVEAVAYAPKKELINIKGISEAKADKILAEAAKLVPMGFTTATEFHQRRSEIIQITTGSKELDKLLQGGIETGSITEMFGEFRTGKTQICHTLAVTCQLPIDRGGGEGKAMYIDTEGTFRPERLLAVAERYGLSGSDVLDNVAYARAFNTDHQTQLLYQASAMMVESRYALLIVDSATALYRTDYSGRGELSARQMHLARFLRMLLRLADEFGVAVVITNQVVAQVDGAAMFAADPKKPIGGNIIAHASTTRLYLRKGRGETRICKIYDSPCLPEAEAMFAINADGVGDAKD
Test: ELISA; competitive ELISA; BRC4-biotinylated peptide coated on 384-well plates, blocked with 1% BSA/PBS-T, overnight hybridisation with human RAD51; small-molecule compounds added 0.01-100 uM at constant 1% DMSO; detection with anti-RAD51 and HRP-secondary antibodies
Settings: both partners purified

binding result: binds
B1: BRC4-biotinylated peptide (peptide)
peptide: KEPTLLGFHTASGKKVKIAKESLDKVKNLFDEKEQ
modifications: biotin on the N-terminus
notes: BRC4 repeat of BRCA2; holds the FxxA motif (BRCA2 residues 1524-1527) and the LFDE motif (BRCA2 residues 1545-1548) as numbered in the introduction; also called biotinylated BRC4 peptide; BRC4 peptide; source: bought: Life Technologies
